Here are results for one substance from publication PMC12974146.

The target of this test is Recombinant CdaA fragment spanning residues 88-273 (CdaA_(88-273)), Leptospira interrogans LIC10844 (Leptospira interrogans serovar Copenhageni strain Fiocruz L1-130). Nature of the test: SEC; TSKgel G4000SWXL column, PBS as mobile phase, 1.0 mL min^-1; 50 µg of protein injected; MW estimated from a standard curve of 15-600 kDa protein standards.

As to “Recombinant CdaA fragment spanning residues 88-273 (CdaA_(88-273)), Leptospira interrogans LIC10844 (domain or fragment)”, the stoichiometry N was 2.

One may read the stoichiometry N as the number of molecules, sites or subunits per partner or assembly.
